Reference: US5763245A, “Method of controlling insects” (priority 1996, dated 1998)

Legend:
boll weevil larvae = experiment: Boll weevil larvae bioassay (diet incorporation); assay type: in vivo
Experimental: Assays for activity against boll weevil larvae are carried out by incorporating the test sample into a agar liquid diet similar to that for southern corn rootworm [Marrone et al., 1985]. The test sample is substituted for the 20% water component. Neonate larvae are allowed to feed on the diet and mortality and growth stunting are evaluated.
Protein concentrations were determined spectrophotometrically with BCA protein reagent [Smith et al., 1985].

[1] = 3-Hydroxysteroid oxidase assay (spectrophotometric); assay type: biochemical
Experimental: The identity of the enzyme was confirmed by testing its ability to oxidize a 3-hydroxysteroid, specifically cholesterol. The enzyme is added to a reagent mixture comprising horseradish peroxidase (20 U/mL), phenol (14 mM), 4-amino antipyrine (0.82 mM), Triton® X-100 (0.05%) and phosphate buffer (100 mM, pH 7). The sterol in isopropanol is then added and the absorbance at 500 nm monitored. One unit of activity is defined as the amount of enzyme required to oxidize 1 &mole of sterol per minute at 20% C.
The activity levels of the enzymes are reported in Table 12 for 3-hydroxysteroids representative of various classes of 3-hydroxysteroids.

black cutworm = experiment: Lepidopteran larvae bioassay on treated artificial diet, six days; assay type: in vivo; settings: stage lv, dose 100 μg/mL
Experimental: (§1) Lepidopteran larvae were tested on artificial diet treated with the indicated amount of the A19249 3-hydroxysteroid oxidase (cholesterol oxidase) for six days.

pink bollworm = experiment: as above; assay type: in vivo; settings: stage lv
Experimental: as §1

beet armyworm = experiment: as above; assay type: in vivo; settings: stage lv, dose 100 μg/mL
Experimental: as §1

tobacco hornworm = experiment: as above; assay type: in vivo; settings: stage lv
Experimental: as §1

European cornborer = experiment: as above; assay type: in vivo; settings: stage lv
Experimental: as §1

corn earworm = experiment: as above; assay type: in vivo; settings: stage lv
Experimental: as §1

fall army worm = experiment: as above; assay type: in vivo; settings: stage lv, dose 30 μg/mL
Experimental: as §1

tobacco budworm = experiment: as above; assay type: in vivo
Experimental: as §1

tobacco budworm larvae = experiment: Extended test with tobacco budworm larvae; assay type: in vivo; settings: 100 ppm in artificial diet
Experimental: An extended test was performed with tobacco budworm larvae to test the effect of the stunting noted in the six-day test. Tobacco budworm eggs were added to artificial diet (as described above) containing either buffer or 100 ppm A19249 3-hydroxysteroid oxidase (cholesterol oxidase). After seven days, some mortality as compared to the controls was noted. Surviving larvae were moved to fresh diet (control or treated, as appropriate). Percent mortality (corrected for control mortality) is reported for the 7 day and 10 day periods in Table 2A. The corrected number of larvae was […]

B1: A19249: 3-hydroxysteroid oxidase produced by streptomycete A19249 collected in Madagascar; 52.5 kDa, SEQ ID NO: 8 (protein)
chain: VNAHQPLSRRRMLGLAALGAAALTGQTTITAAPRAAAATAPGGSGGTFVPAVVIGTGYGAAVSALRLGEAGVSTLMLEMGQLWNQPGPDGNVFCGMLKPDKRSSWFKTRTEAPLGSFLWLDLANRDIDPYAGVLDRVNFDQMSVYVGRGVGGGSLVNGGMAVTPRRSYFQEVLPQVDADEMYGTYFPRANSGLRVNNIDKDWFEQTEWYTFARVARLQAENAGLKTTFVPNVYDWDYMRGEADGTNPKSALAAEVIYGNNHGKVSLDKSYLAAALGTGKVTVETLHQVKTIRQQNDGTYLLTVEQKDPDGKLLGTKEISCRHLFLGAGSLGSIELLLRARETGTLPGLSSEIGGGWGPNGNIMTARANHVWNPTGSKQSSIPALGIDDWDNPDNPVFAEIAPMPAGLETWVSLYLAITKNPERGTFVYDAAKDRADLRWTRDQNAPAVAAAKSLFDRVNKANTTIYRYDLFGKQIKAFADDFCYHPLGGCVLGKATDNYGRVSGYKNLYVTDGSLIPGSIGVNPFVTITALAERNVERVIKEDIAGS
Boll weevil larvae; 5 μg/mL, 175 mUnits per mL
  BollWeevil % Mortality: 10%
  Survivor Stunting: Slight
Boll weevil larvae; 10 μg/mL, 350 mUnits per mL
  BollWeevil % Mortality: 10%
  Survivor Stunting: Moderate
Boll weevil larvae; 15 μg/mL, 525 mUnits per mL
  BollWeevil % Mortality: 5%
  Survivor Stunting: Moderate
Boll weevil larvae; 20 μg/mL, 700 mUnits per mL
  BollWeevil % Mortality: 15%
  Survivor Stunting: Severe
Boll weevil larvae; 40 μg/mL, 1400 mUnits per mL
  BollWeevil % Mortality: 70%
  Survivor Stunting: Severe
Boll weevil larvae; 60 μg/mL, 2100 mUnits per mL
  BollWeevil % Mortality: 60%
  Survivor Stunting: Severe
[1]; sterol: 20-OH ecdysone
  Relative Rate: < 1
[1]; sterol: campesterol*
  Relative Rate: 65
[1]; sterol: cholesterol
  Relative Rate: 100
[1]; sterol: dehydrocholesterol
  Relative Rate: 13
[1]; sterol: dihydrocholesterol
  Relative Rate: 56
[1]; sterol: ecdysone
  Relative Rate: < 1
[1]; sterol: fucosterol
  Relative Rate: 22
[1]; sterol: lanosterol
  Relative Rate: < 1
[1]; sterol: lathosterol
  Relative Rate: 28
[1]; sterol: sitosterol
  Relative Rate: 88
[1]; sterol: stigmasterol
  Relative Rate: 22
Black cutworm
  Stunting: 68%
Pink bollworm; dose 50 μg/mL
  Stunting: 0
Pink bollworm; dose 100 μg/mL
  Stunting: 30%
Beet armyworm
  Stunting: 76%
Tobacco hornworm; dose 30 μg/mL
  Stunting: 0
Tobacco hornworm; dose 100 μg/mL
  Stunting: 30%
European cornborer; dose 50 μg/mL
  Stunting: 0
European cornborer; dose 100 μg/mL
  Stunting: 46%
Corn earworm; dose 50 μg/mL
  Stunting: 0
Corn earworm; dose 100 μg/mL
  Stunting: 35%
Fall army worm
  Stunting: 0
Tobacco budworm; stage egg/lv, dose 30 μg/mL
  Stunting: 0
Tobacco budworm; stage lv, dose 100 μg/mL
  Stunting: 86%
Tobacco budworm larvae; interval 7 days
  Percent Mortality (corrected for control mortality): 20%
Tobacco budworm larvae; interval 10 days
  Percent Mortality (corrected for control mortality): 61%
Tobacco budworm larvae; interval 14 days
  Percent Mortality (corrected for control mortality): 80%
